Experimental data reported in US20170082609A1.

What was measured:
[1] = molecular target: CDHR3 Cys529→Tyr variant with Asn186→Ala (human) (UniProt Q6ZTQ4); test: virus bound to transfected HeLa cells 2 h p.i., viral RNA by qRT-PCR, against CDHR3 Cys529→Tyr without the mutation
[2] = molecular target: CDHR3 Cys529→Tyr variant with Asn186→Ala (human) (UniProt Q6ZTQ4); test: cell-based or functional assay
[3] = molecular target: human cadherin-related family member 3 (CDHR3), wild-type (human) (UniProt Q6ZTQ4); test: cell-based or functional assay
[4] = molecular target: CDHR3 Cys529→Tyr variant (human) (UniProt Q6ZTQ4); test: cell-based or functional assay
[5] = molecular target: CDHR3 Cys529→Tyr variant (human) (UniProt Q6ZTQ4); test: virus bound to transfected HeLa cells 2 h p.i., viral RNA by qRT-PCR

Substance: rhinovirus C15 (RV-C15), recombinant virus from the clinical isolate's infectious clone
- percent impairment of virus binding [1]: > 70%
- replication [2]: 70%
- replication (RV-C RNA compared to input) [3]: 2 log
- progeny yield relative to the wild-type CDHR3 [4]: 10 fold
- replication in HeLa-E8 cells (viral RNA from 2 h to 24 h post infection) [4]: > 2 log
- fold binding relative to the wild-type CDHR3 [5]: 10 fold
